The chains are these.
B1: YBL106C: GST fusion yeast protein on proteome chip (protein, UniProt P38163 1-1010, looked up)
Lethal(2) giant larvae …: MFKKSRHLKNVSNAIKSARVHDVSNGINSKFFDTKKICTYGINGRITVTTFDYTQSLLAVATTAGEIHVYGQKQIEVVFTLKNRPQIKHMRFIKGIYLIAVDEKSNIIVLSVHSKQILTTVFCPNSITCIETDPSLDWMLIGLESGSILIYDVDRNQMSKLKIENFQKSVFLPKERLSPVISIQWNPRDIGTILISYEHITVIYSFIDYKVKQHFFYQLEPYAPGGDLSTNIEKKRTPKVIQSLYHPNSLHILTVHEDNSLVFWDVNSGKLIHARSIFETHVNFPNPALKDCSFTETPAIFKVSWLCQRNPEYTSLLIATKATENPCLPQEITMIDLGGTPMYSVTSFDAMSKYYAKPVQQKLFSLIGKAPLINFLPLPKASPYFGGCHDTNLILLLLEDGELETLIYPAGSFSSKASIFPRSLAWVRPTVTTCIAQSVQKNLWLGMMTIAQSESFLKGGIPATRNIRRHETRSALLTGHSNGSVRIWDASHSEVTDNAVFEVNTAKVLNRATNLAIKNISFASETLELAVSSEVGDVILFKFETNKFYGQLPKSDALQLKFSRFSLDDSKTILVDVSDRGPTNVKQGFIPSTVIHAKKGAVSAIMNSNIGFVAVGFIEGTLIILDRRGPAIIFNENIRVISKAGSSYVSTVHFCVMEYGDDGFSSILMLCGTDIGELMTFKILPATNGRFEVKFTDATKTNNQGKILGINSFAKDTGYSCSATISKMQGLSKGIAIPGFVTISGANDIRLVSPGKSKDTHALFKYPIATSGLSFIPIIDGKGERKLSTIMIVLLINGDIKVLTVPELKEVKNLRCPVPLSAQYVENSSILENGDIVIRTGKFQASLISVLNESATGTNHTADISQHTPIDTLYNPDLKIGYRPQVNSLQWARGTIYCTPYQLDELLGGIERPESKYEESAIARGCISSSSSNAARKLPPGTEDHRYARPVRSSGRSNGYGVLKSVSRAIETRLDTVETTINDYATTMGQTMNDAMEETGRDMMKSAVGF
modifications: GST tag
notes: GST fusion yeast protein on proteome chip
B2: YDL002C: GST fusion yeast protein on proteome chip (protein, UniProt Q03435 2-203, looked up)
Non-histone protein 10: SVEEKKRRLEELKDQNVVLGLAIQRSRLSVKRLKLEYGVLLERLESRIELDPELNCEDPLPTLASFKQELLTKPFRKSKTKRHKVKERDPNMPKRPTNAYLLYCEMNKERIRQNGSLDVTRDLAEGWKNLNEQDRKPYYKLYSEDRERYQMEMEIYNKKISNIDADDDKEENEQKIKNNEEGSSTKVADSKGGEDGSLVSSN
modifications: GST fusion
notes: as for B1
B3: YKL140W: GST fusion yeast protein on proteome chip (protein, UniProt P34163 1-548, looked up)
Sterol esterase TGL1: MYFPFLGRLSITDYIIVVLVYIESIISSVLKLIPQPMINLFEWLINFSTSSDDNTIEEKLRSAPTIHEMCAIFDISVEDHLVRTEDNYILTLHRIPPISKNRFNNKVVYLHHGLLMCSDVWCCNIERHKNLPFVLHDLGYDVWMGNNRGNKYSTAHLNKPPKSNKFWDFSIDEFAFFDIPNSIEFILDITKVDKVICIGFSQGSAQMFAAFSLSEKLNRKVSHFIAIAPAMTPKGLHNRIVDTLAKSSPGFMYLFFGRKIVLPSAVIWQRTLHPTLFNLCIDIANKILFNWKSFNILPRQKIASYAKLYSTTSVKSIVHWFQILRSQKFQMFEESDNMLNSLTRPYQIANFPTRTNIKIPILLIYGGIDSLVDIDVMKKNLPFNSVFDVKVDNYEHLDLIWGKDADTLVIAKVLRFIEFFNPGNVSVKTNQLLPSASLVEELPSTTWKTTHPTHGLSYRTHSADRSPLSVQADEADEVHNADNSRFLRRVFSTSAIDEDNENEHQDDTEDQIHKEQQRRLSAYLESSKDLRQLDANSSTTALDALNKE
modifications: GST tag
notes: as for B1
B4: YMR072W: GST fusion yeast protein on proteome chip (protein, UniProt Q02486 27-183, looked up)
ARS-binding factor 2, …: KASKRTQLRNELIKQGPKRPTSAYFLYLQDHRSQFVKENPTLRPAEISKIAGEKWQNLEADIKEKYISERKKLYSEYQKAKKEFDEKLPPKKPAGPFIKYANEVRSQVFAQHPDKSQLDLMKIIGDKWQSLDQSIKDKYIQEYKKAIQEYNARYPLN
modifications: GST tag
notes: as for B1
B5: YDL070W: GST fusion yeast protein on proteome chip (protein, UniProt Q07442 1-638, looked up)
Bromodomain-containing factor …: MSRTNMDTRHAHSALLAAPQSATANSRSSNSSSESSSNKNNINVGVGDDSGNVSAVSIDDGPHFRDIFHYGHEENYKLASSGITNLNSSSHAHQTLSPISISNASTPESFPEHPLGLERETEPALEAEMEAEELPPHQSKYLLSSIKATKRLKDARPFLKPVDPIALNIPHYFNYVQTPMDLSLIETKLQGNVYHSVEQVTSDFKTMVDNCLNFNGPESSISSMAKRIQKYFEKKLSAMPPRVLPASALKKTSRNRKKNEDMDSPLVIRRSVSTTNDNIGESGNREGVSGGRPKRTIHPPKSKDLFDIYENSKPKSKTLQKKFRTCLKILKVLMSKKNSDINFPFLQPVDPIALNLPNYFDVVKNPMDLGTISNNLMNWKYKTIDQFVDDLNLVFYNCFQFNPEGNEVHSMGKKLKELFNFHWLENQDILNEIETDSDLEEDNYSSSYSSDDEYDDEDINENDITNPAIQYLEQKLKKMEVELQQLKRQELSKLSKERKRKHLGKTLLRRKAMKHSVDDLKKSITDKINELSDLEMNGMIRIIKNSLPADEILTSNEDEIEIDLDILDEATIARIYERYFEKKNNNNSKRKLSGNYSTAPTNKKKKTLKFLEKDEIINNNNYSDSEEDSSDSSDSDSD
modifications: GST fusion
notes: as for B1
B6: YNL125C: GST fusion yeast protein on proteome chip (protein, UniProt P53918 1-673, looked up)
Uncharacterized transporter …: MSTHSNDYFSASSGMVSETSSEVSSINSSQPVSFSKASIAAPVPCSDLHSTKSNDASRKLSISRTLTNRLNDIKKAVDDDNLQTEENSADVNKILESRFDVADAIRLQHNESVQSKLNIPVTHTTTAGASLSAPSSSAFSASSIQNDTTEHKASMDSKLMRNRLYPASTKHSGKDLEAQGITEFEPDEPTVKKVFTNKSTGQLELPPDGGYGWVVTFCVFLTMFSTWGCNASFGVDLAYYLNHDTYPGASKYDYALIAGLTVFLGQLLSPLVMALMRIIGLRTTMLFGDAVMLAAYLLASFTTKLWQLYVTQGFMVGCSISLIFVPATTVLPGWFLKKRAVAMGVSLLGTGAGGVVYGLATNKMLSDFGNTRWCLRIIGISCSISVLVAIALLKERNPTPAIGLKSPRAMFEQLKAMFSLKVITKPFVVLIALWFMFALFAYNMMVFTLSSYAISKGLSSHDASTLTAILNGSQSIGRPLMGLAGDKFGRANVTIVLTTLLTIYMFAFWIPAHTFVQLIFFSILVGSCVGVANVMNTVLIADMVKPEEFLPAWAFVNYCGAPFLLVCEVIAQALTVEKDKSNPYLHAQIFCGCCFIAALILISILREYSIRMKLTERQAMTNEKLKEWKASEYDTDSADEDWGKLKERKTKYDLLLGPGIKKYFLRMVYPMKV
modifications: GST fusion
notes: as for B1
B7: YCR105W: GST fusion yeast protein on proteome chip (protein, UniProt P25377 1-361, looked up)
NADP-dependent alcohol …: MLYPEKFQGIGISNAKDWKHPKLVSFDPKPFGDHDVDVEIEACGICGSDFHIAVGNWGPVPENQILGHEIIGRVVKVGSKCHTGVKIGDRVGVGAQALACFECERCKSDNEQYCTNDHVLTMWTPYKDGYISQGGFASHVRLHEHFAIQIPENIPSPLAAPLLCGGITVFSPLLRNGCGPGKRVGIVGIGGIGHMGILLAKAMGAEVYAFSRGHSKREDSMKLGADHYIAMLEDKGWTEQYSNALDLLVVCSSSLSKVNFDSIVKIMKIGGSIVSIAAPEVNEKLVLKPLGLMGVSISSSAIGSRKEIEQLLKLVSEKNVKIWVEKLPISEEGVSHAFTRMESGDVKYRFTLVDYDKKFHK
modifications: GST fusion
notes: as for B1

The target of the assay is T1, FHHDbf2-H6Mob1TM9 (Saccharomyces cerevisiae, UniProt P22204+P40484).
T1 construct: made in house; host or cells: Hi5 insect cells (baculovirus)
T1 sequence (P22204 1-572): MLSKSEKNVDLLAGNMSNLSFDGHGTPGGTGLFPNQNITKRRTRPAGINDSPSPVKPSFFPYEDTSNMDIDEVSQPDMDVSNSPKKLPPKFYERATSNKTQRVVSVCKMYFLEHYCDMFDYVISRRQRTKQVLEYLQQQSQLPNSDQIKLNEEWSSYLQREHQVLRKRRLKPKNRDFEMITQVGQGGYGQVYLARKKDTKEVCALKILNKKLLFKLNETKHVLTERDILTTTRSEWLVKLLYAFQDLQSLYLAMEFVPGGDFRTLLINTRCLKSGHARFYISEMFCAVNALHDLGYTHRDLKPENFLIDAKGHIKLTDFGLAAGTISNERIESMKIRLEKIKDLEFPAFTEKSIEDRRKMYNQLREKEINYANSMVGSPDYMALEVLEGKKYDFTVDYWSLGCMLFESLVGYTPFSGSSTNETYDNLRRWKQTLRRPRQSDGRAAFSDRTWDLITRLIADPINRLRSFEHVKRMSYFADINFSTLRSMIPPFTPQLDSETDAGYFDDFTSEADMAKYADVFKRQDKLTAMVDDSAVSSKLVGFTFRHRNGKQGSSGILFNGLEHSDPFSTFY
T1 sequence (P40484 1-314 partner): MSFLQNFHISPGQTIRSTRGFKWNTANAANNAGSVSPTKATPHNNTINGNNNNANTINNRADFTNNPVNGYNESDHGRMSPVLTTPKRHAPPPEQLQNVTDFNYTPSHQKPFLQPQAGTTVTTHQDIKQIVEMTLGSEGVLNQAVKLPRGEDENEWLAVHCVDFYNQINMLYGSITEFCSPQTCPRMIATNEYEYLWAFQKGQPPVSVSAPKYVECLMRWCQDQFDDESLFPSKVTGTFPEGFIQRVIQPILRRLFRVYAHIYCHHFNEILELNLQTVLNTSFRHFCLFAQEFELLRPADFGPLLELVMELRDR
Kind of assay: Yeast proteome chip assay. It counts as biochemical. The conditions noted are these: Table 3; GST fusion proteins on proteome chip, [γ-33P]ATP, chips in duplicate, computer analysis. The protocol:
The relatively low sequence complexity of the Dbf2 phosphorylation motif diminished the power of using genome-wide bioinformatics screens to identify putative substrates. Accordingly, we carried out a proteome array screen to identify putative yeast substrates. […] After taking into account the proteins phosphorylated in the negative controls, 67 proteins were determined to be putative Dbf2-Mob1 substrates (Table 3).
Yeast proteome microarrays were prepared as previously described. Overexpressed GST-tagged yeast proteins were purified from ~4,400 yeast strains and spotted on slides. To determine the optimal amount of kinase to use for probing proteome chips, we performed trial assays as described (J. Ptacek et al., submitted). […] The full proteome array was probed with 4 μl ^FHHDbf2-^H6Mob1^TM9 in 200 μl of DKB supplemented with [γ-^33P]ATP. As a control, ^FHHDbf2(N305A)-^H6Mob1^TM9 was used to probe the proteome array. […] To control for autophosphorylated proteins, the proteome array was probed with 200 μl of DKB supplemented with [γ-^33P]ATP. Proteome chips were assayed in duplicate in each case. Data analysis was performed as described (J. Ptacek et al., submitted). Briefly, signals were analyzed by a computer algorithm designed to normalize background and identify signals as positive if 3 of 4 spots (each protein is spotted twice on each slide and each kinase or control was tested on 2 slides) were 2 standard deviations above background and the fourth spot was 1.5 standard deviations above background.
On to B1, for which the “Slide Signal (after normalization)” value stood at 0.5988.
The value for B2 was 0.8102; that for B3 was 0.6321; that for B4 was 0.7585.
On to B5, for which the “Slide Signal (after normalization)” value was 0.6162.
Then B6, with 0.5694; and B7, with 0.6146.
